Test results as given in patent US20120093813A1.

Key:
[1] = biological target: huN1-NRRHD Mutant 1467Q/A (human) (UniProt P46531); test: ELISA, relative to huN1-NRRHD
[2] = biological target: huN1-NRRHD Mutant 1465S/N (human) (UniProt P46531); test: ELISA, relative to huN1-NRRHD
[3] = biological target: huN1-NRRHD Mutant 1462K/A (human) (UniProt P46531); test: ELISA, relative to huN1-NRRHD
[4] = biological target: Notch1 chimeric antigen, Lin-A domain swapped with murine sequence (human; human with mouse Lin-A) (UniProt P46531); test: ELISA, relative to huN1-NRRHD
[5] = biological target: huN1-NRRHD Mutant 1466L/A (human) (UniProt P46531); test: ELISA, relative to huN1-NRRHD
[6] = biological target: huN1-NRRHD Mutant 1457E/A (human) (UniProt P46531); test: ELISA, relative to huN1-NRRHD
[7] = biological target: huN1-NRRHD Mutant 1463V/A (human) (UniProt P46531); test: ELISA, relative to huN1-NRRHD
[8] = biological target: huN1-NRRHD chimeric antigen, HD-C Subdomain swap 1 (to Notch2 sequence) (human; human with Notch2 residues) (UniProt P46531); test: ELISA on coated conditioned medium
[9] = biological target: huN1-NRRHD chimeric antigen, HD-C Subdomain swap 5 (to Notch2 sequence) (human; human with Notch2 residues) (UniProt P46531); test: ELISA on coated conditioned medium
[10] = biological target: huN1-NRRHD chimeric antigen, HD-C Subdomain swap 3 (to Notch2 sequence) (human; human with Notch2 residues) (UniProt P46531); test: ELISA on coated conditioned medium
[11] = biological target: Notch1 chimeric antigen, Lin-A domain swapped with murine sequence (human; human with mouse Lin-A) (UniProt P46531); test: ELISA on coated conditioned medium
[12] = biological target: huN1-NRRHD chimeric antigen, HD-C Subdomain swap 4 (to Notch2 sequence) (human; human with Notch2 residues) (UniProt P46531); test: ELISA on coated conditioned medium
[13] = biological target: huN1-NRRHD chimeric antigen, HD-C Subdomain swap 2 (to Notch2 sequence) (human; human with Notch2 residues) (UniProt P46531); test: ELISA on coated conditioned medium

B1: mouse monoclonal antibody N248A (antibody, IgG1, V domains shown)
VH: QVQLQQSGAELMKPGASVKISCKATGYTFSNYWMEWVKQRPGHGLEWIGEILPGRGRTNYNENFKGKATFTADTSSNTVYMQLNSLTSEDSAVYYCARFHSSAYYYTMDYWGQRTSVTVSS
VL: QAVVTQESALTTSPGETVTLTCRSSTGAVTTSNYANWVQEKPDHLFTGLIGGTNNRAPGIPARFSGSLIGDKAALTITGAQTEDEAIYFCALWYSNHWVFGGGTKLTVL
- Binding activity [1]: 4%
- Binding activity [2]: 8%
- Binding activity [3]: 85%
- Binding activity [4]: 11%
- Binding activity [5]: 1%
- Binding activity [6]: 112%
- Binding activity [7]: 6%
- ELISA reading (Binding activity) [8]: 0.48
- ELISA reading (Binding activity) [9]: 1.48
- ELISA reading (Binding activity) [10]: 2.81
- ELISA reading [11]: 0.33
- ELISA reading (Binding activity) [12]: 2.89
- ELISA reading (Binding activity) [13]: 2.76
